# Measured values from patent publication US20250206837A1 (ELIXIRON IMMUNOTHERAPEUTICS HONG KONG, published 2025).
# Changes are numbered by the printed parent chain. Names may count otherwise. “And” between values parts separate entries of the source, which are not always exact repeats. Equal entries are not always repeated.
# B1: 12P109 (antibody, human IgG1, kappa, N297A, V domains shown)
# VH: EVQLVESGGGLVQPGGSLRLSCAASGFTISSFGIHWVRQAPGKGLEWVAWIAPYGGYTYYADSVKGRFTISADTSKNTAYLQMNSLRAEDTAVYYCARSFFGYFDYWGQGTLVTVSS
# VL: DIQMTQSPSSLSASVGDRVTITCRASQDVSNWVAWYQQKPGKAPKLLISTSTSLYSGVPSRFSGSGSGTDFTLTISSLQPEDFATYYCQQYYTLPFTFGQGTKVEIKR
# notes: Full-length human IgG1-N297A, kappa; also called 12P109 (IgG1)
# B2: A8A (antibody, human IgG1, kappa, N297A, V domains shown)
# VH: B1 VH
# VL: B1 VL with T50Y, S51A, T52N, Y91H, Y92S, T93N, F96L
# notes: Full-length human IgG1-N297A, kappa; also called A8A (IgG1)
# B3: 117_DA57E (antibody, V domains shown)
# VH: B1 VH with S30D, S31A, Y57E
# VL: B1 VL with T50Y, S51A, Y91H, Y92S, T93N, L94A, F96L
# notes: full-length IgG, human kappa
# B4: 117_AA57E (antibody, V domains shown)
# VH: B1 VH with S30A, S31A, Y57E
# VL: B1 VL with T50Y, S51A, Y91H, Y92S, T93N, L94A, F96L
# notes: full-length IgG, human kappa
# B5: 117_57E (antibody, V domains shown)
# VH: B1 VH with Y57E
# VL: B1 VL with T50Y, S51A, Y91H, Y92S, T93N, L94A, F96L
# notes: full-length IgG, human kappa
# B6: 117_AA57D (antibody, V domains shown)
# VH: B1 VH with S30A, S31A, Y57D
# VL: B1 VL with T50Y, S51A, Y91H, Y92S, T93N, L94A, F96L
# notes: full-length IgG, human kappa
# B7: 117_57D (antibody, V domains shown)
# VH: B1 VH with Y57D
# VL: B1 VL with T50Y, S51A, Y91H, Y92S, T93N, L94A, F96L
# notes: full-length IgG, human kappa
# B8: 117_30DA (antibody, V domains shown)
# VH: B1 VH with S30D, S31A
# VL: B1 VL with T50Y, S51A, Y91H, Y92S, T93N, L94A, F96L
# notes: full-length IgG, human kappa
# B9: 117_DA57D (antibody, V domains shown)
# VH: B1 VH with S30D, S31A, Y57D
# VL: B1 VL with T50Y, S51A, Y91H, Y92S, T93N, L94A, F96L
# notes: full-length IgG, human kappa
# B10: 117_101Y (antibody, V domains shown)
# VH: B1 VH with F101Y
# VL: B1 VL with T50Y, S51A, Y91H, Y92S, T93N, L94A, F96L
# notes: full-length IgG, human kappa
# B11: 117_101H (antibody, V domains shown)
# VH: B1 VH with F101H
# VL: B1 VL with T50Y, S51A, Y91H, Y92S, T93N, L94A, F96L
# notes: full-length IgG, human kappa
# B12: 117_101S (antibody, V domains shown)
# VH: B1 VH with F101S
# VL: B1 VL with T50Y, S51A, Y91H, Y92S, T93N, L94A, F96L
# notes: full-length IgG, human kappa
# B13: 117_101K (antibody, V domains shown)
# VH: B1 VH with F101K
# VL: B1 VL with T50Y, S51A, Y91H, Y92S, T93N, L94A, F96L
# notes: full-length IgG, human kappa
# B14: 117_101A (antibody, V domains shown)
# VH: B1 VH with F101A
# VL: B1 VL with T50Y, S51A, Y91H, Y92S, T93N, L94A, F96L
# notes: full-length IgG, human kappa
# B15: 117_30AT (antibody, V domains shown)
# VH: B1 VH with S30A, S31T
# VL: B1 VL with T50Y, S51A, Y91H, Y92S, T93N, L94A, F96L
# notes: full-length IgG, human kappa
# B16: 117_30FA (antibody, V domains shown)
# VH: B1 VH with S30F, S31A
# VL: B1 VL with T50Y, S51A, Y91H, Y92S, T93N, L94A, F96L
# notes: full-length IgG, human kappa
# B17: 117_30DT (antibody, V domains shown)
# VH: B1 VH with S30D, S31T
# VL: B1 VL with T50Y, S51A, Y91H, Y92S, T93N, L94A, F96L
# notes: full-length IgG, human kappa
# B18: 117_30FT (antibody, V domains shown)
# VH: B1 VH with S30F, S31T
# VL: B1 VL with T50Y, S51A, Y91H, Y92S, T93N, L94A, F96L
# notes: full-length IgG, human kappa
# B19: 117_30AA (antibody, V domains shown)
# VH: B1 VH with S30A, S31A
# VL: B1 VL with T50Y, S51A, Y91H, Y92S, T93N, L94A, F96L
# notes: full-length IgG, human kappa
# B20: 117_57R (antibody, V domains shown)
# VH: B1 VH with Y57R
# VL: B1 VL with T50Y, S51A, Y91H, Y92S, T93N, L94A, F96L
# notes: full-length IgG, human kappa
# B21: 117_57A (antibody, V domains shown)
# VH: B1 VH with Y57A
# VL: B1 VL with T50Y, S51A, Y91H, Y92S, T93N, L94A, F96L
# notes: full-length IgG, human kappa
# B22: 117_58E (antibody, V domains shown)
# VH: B1 VH with T58E
# VL: B1 VL with T50Y, S51A, Y91H, Y92S, T93N, L94A, F96L
# notes: full-length IgG, human kappa
# B23: 57T (antibody, V domains shown)
# VH: B1 VH with Y57T
# VL: B1 VL with T50Y, S51A, Y91H, Y92S, T93N, L94A, F96L
# notes: the sheet prints only 57T
# Molecular target: T1, Recombinant His-tagged human CD36.ECD protein (Sino Biological) (human, UniProt P16671 30-439)
# T1 construct: Bought protein; also called hCD36.ECD; hCD36; not shown: His tag
# T1 sequence (P16671 30-439 limits assumed): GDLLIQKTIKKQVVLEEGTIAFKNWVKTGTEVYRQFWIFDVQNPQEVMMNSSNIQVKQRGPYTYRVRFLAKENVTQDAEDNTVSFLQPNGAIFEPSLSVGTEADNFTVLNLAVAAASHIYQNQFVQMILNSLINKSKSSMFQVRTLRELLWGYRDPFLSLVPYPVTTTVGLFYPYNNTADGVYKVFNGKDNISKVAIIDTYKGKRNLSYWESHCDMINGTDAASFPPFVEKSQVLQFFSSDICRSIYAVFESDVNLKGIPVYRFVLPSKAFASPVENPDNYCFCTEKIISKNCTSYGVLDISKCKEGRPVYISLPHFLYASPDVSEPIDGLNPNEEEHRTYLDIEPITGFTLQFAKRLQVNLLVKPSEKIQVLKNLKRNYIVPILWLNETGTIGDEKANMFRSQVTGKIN
# Assay: BLI (Octet), antibody on AHC sensor, His-tagged hCD36.ECD in solution, 1:1 fit
# Method: BLI assay materials and method: Kinetic rate constants, ka and kd, for binding of the anti-CD36 antibodies to human CD36 were measured by Bio-Layer Interferometry (BLI) (ForteBio Octet RED96). […] Rate constants were calculated by curve fitting analyses (1:1 Langmuir model) of binding response with a 2.5-minute association and 5-minute dissociation interaction time.
Kd [pM],koff [s⁻¹],kon [M⁻¹ s⁻¹],Binder
18500,0.00963,522000,B1
3420,0.00462,1.35e+06,B2

# Molecular target: T1, Recombinant His-tagged human CD36.ECD …
# Assay: ELISA, coated His-tagged human CD36.ECD
# Method: (§1) ELISA materials and methods: Recombinant His-tagged human CD36.ECD protein or His-tagged mouse CD36.ECD protein (both from Sino Biological) was immobilized on 96 well microtiter plate at a concentration of 1 μg/mL in Coating Solution (SeraCare) overnight at 4° C. The wells were washed with wash solution (0.05% Tween20 in PBS) and blocked with 1% BSA in PBS. Serial dilutions of anti-CD36 antibodies were added to wells. After incubation at 37° C. for 1 h, the wells were washed with wash solution. Peroxidase-conjugated Goat anti-human kappa Light chain antibody (Sigma) was applied to each well at 37° C. for 1 h incubation. After washing, the wells were developed with TMB substrate for 5-10 min at room temperature and then stopped with 1 N HCl. Thereafter absorbance was measured at 450 nm and 650 nm. EC50 values were calculated through GraphPad Prism7.
# (§2) Results: ELISA data plots showing binding to either human CD36.ECD or mouse CD36.ECD are depicted in FIG. 1A and FIG. 1B, respectively, for the full-length IgG anti-CD36 antibody 12P109, and additional positive clones, 12P102, 12P103, 12P104, 12P105, 12P106, 12P107, 12P110 and 12P212.
row,EC50 [pM],Binder
1,213,B1

# Molecular target: T1, Recombinant His-tagged human CD36.ECD …
# Assay: ELISA, coated human CD36.ECD (FIG. 1C)
# Method: as §1
# (§3) ELISA data plots showing binding of anti-CD36 antibodies to recombinant human CD36.ECD or mouse CD36.ECD coated on ELISA plates are depicted in FIG. 1C and 1D, respectively.
row,EC50 [pM],Binder
1,43200,B1
2,5170,B2

# Molecular target: T1, Recombinant His-tagged human CD36.ECD …
# Assay: ELISA, coated human CD36.ECD (FIG. 2F)
# Method: as §1
# (§4) The competitor anti-CD36 antibody ONA, which is derived from clone “ONA-0-v1” as disclosed in WO2021176424A1 in hIgG4-S228P-FALA format.
row,EC50 [pM],Binder
1,190,B3
2,251,B4
3,206,B5
4,192,B6

# Molecular target: T2, Recombinant His-tagged mouse CD36.ECD protein (Sino Biological) (mouse, UniProt Q08857 30-439)
# T2 construct: Bought protein; also called mCD36.ECD; mCD36; not shown: His tag
# T2 sequence (Q08857 30-439 limits assumed): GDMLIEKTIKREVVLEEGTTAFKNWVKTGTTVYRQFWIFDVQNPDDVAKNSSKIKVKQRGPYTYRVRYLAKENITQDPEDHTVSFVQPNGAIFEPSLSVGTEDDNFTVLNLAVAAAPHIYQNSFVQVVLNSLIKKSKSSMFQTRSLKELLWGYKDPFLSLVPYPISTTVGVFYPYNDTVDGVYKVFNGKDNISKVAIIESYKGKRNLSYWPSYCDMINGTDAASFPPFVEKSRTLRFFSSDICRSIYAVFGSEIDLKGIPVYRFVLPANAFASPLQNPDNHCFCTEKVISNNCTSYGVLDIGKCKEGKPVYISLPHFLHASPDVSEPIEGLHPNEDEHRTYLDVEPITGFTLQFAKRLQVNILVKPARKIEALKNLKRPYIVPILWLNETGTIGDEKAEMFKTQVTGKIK
# Assay: ELISA, coated His-tagged mouse CD36.ECD
# Method: as §1, §2
row,EC50 [pM],Binder
1,137,B1

# Molecular target: T2, Recombinant His-tagged mouse CD36.ECD …
# Assay: ELISA, coated mouse CD36.ECD (FIG. 1D)
# Method: as §1, §3
row,EC50 [pM],Binder
1,9450,B1
2,940,B2

# Molecular target: T3, full-length human CD36-Flag overexpressed on stable F293 cells (human, UniProt P16671 2-472)
# T3 sequence (P16671 2-472): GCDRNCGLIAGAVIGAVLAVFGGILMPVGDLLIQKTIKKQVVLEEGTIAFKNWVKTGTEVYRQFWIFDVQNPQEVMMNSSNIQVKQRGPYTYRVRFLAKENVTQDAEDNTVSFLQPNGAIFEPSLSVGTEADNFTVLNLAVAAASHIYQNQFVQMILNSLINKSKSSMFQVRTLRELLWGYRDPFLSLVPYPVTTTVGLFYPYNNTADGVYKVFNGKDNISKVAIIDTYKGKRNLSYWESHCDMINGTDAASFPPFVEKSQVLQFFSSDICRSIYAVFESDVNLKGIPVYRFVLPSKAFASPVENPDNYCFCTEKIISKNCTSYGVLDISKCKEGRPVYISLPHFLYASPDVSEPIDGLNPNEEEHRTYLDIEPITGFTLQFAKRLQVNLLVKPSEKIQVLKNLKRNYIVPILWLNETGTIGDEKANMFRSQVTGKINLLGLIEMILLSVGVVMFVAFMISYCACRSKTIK
# Assay: cell-based or functional assay
row,"oxLDL uptake IC50 (nM), F293/hCD36 [nM]",Binder
1,0.401,B1
2,0.306,B3
3,0.349,B7
4,0.419,B5
5,0.691,B8
6,0.332,B9

# Molecular target: T4, mouse CD36-His overexpressed on stable F293 cells (mouse, UniProt Q08857 1-472)
# T4 sequence (Q08857 whole entry): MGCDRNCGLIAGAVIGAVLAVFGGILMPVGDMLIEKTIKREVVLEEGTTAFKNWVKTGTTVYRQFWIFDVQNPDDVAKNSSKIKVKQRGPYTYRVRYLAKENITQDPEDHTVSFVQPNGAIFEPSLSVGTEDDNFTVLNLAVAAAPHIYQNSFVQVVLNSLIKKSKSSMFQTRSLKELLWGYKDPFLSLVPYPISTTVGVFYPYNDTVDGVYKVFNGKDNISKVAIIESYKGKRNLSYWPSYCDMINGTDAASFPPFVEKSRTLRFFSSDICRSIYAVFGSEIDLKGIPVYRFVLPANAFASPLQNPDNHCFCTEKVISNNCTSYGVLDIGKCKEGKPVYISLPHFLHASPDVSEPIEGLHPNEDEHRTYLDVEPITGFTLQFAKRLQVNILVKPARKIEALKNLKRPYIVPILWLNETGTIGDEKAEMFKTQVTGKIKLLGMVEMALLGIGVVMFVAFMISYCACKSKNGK
# Assay: cell-based or functional assay
row,"oxLDL uptake IC50 (nM), F293/mCD36 [nM]",Binder
1,0.86,B1
2,0.783,B7
3,0.796,B5
4,1.07,B8

# Molecular target: T4, mouse CD36-His overexpressed on stable …
# Assay: flow cytometry, F293 cells overexpressing mouse CD36
# Description: (§5) After washing with FACS buffer (2% FBS in PBS), the cells were stained with anti-human IgG-Alexa Fluor 647 and analyzed by Attune NxT Flow Cytometer (Thermo Scientific).
row,EC50,Binder
1,0.425 µg/mL and 0.375 µg/mL,B3
2,0.309 µg/mL,B7
3,0.331 µg/mL and 0.279 µg/mL,B5
4,0.488 µg/mL,B8
5,0.271 µg/mL,B9

# Molecular target: T5, rhesus CD36-His overexpressed on stable F293 cells (rhesus, UniProt P16671 2-472 (human entry))
# T5 construct: Gene segment from Sino Biological; also called F293/rhesusCD36; not shown: His tag
# T5 sequence (P16671 other isoform, or with tags, fused parts or gaps): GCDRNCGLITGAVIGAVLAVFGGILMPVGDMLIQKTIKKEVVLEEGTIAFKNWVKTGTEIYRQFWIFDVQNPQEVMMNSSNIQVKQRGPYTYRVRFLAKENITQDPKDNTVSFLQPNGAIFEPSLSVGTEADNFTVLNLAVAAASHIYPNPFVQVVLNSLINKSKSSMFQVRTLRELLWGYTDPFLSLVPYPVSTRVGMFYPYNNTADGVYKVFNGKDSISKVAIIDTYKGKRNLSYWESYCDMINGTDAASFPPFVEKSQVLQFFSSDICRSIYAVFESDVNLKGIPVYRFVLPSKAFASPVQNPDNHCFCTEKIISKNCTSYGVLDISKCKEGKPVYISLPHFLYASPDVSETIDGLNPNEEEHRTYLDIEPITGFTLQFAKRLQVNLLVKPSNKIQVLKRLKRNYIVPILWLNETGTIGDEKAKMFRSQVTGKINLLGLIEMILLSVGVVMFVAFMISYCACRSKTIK
# Assay: flow cytometry, F293 cells overexpressing rhesus CD36
# Description: as §5
row,EC50,Binder
1,0.563 µg/mL and 0.671 µg/mL,B3
2,0.397 µg/mL,B7
3,0.419 µg/mL and 0.362 µg/mL,B5
4,1.04 µg/mL,B8
5,0.416 µg/mL,B9

# Molecular target: T1, Recombinant His-tagged human CD36.ECD …
# Assay: ELISA, coated human CD36.ECD (FIG. 2E)
# Method: as §1, §4
row,EC50 [pM],Binder
1,355,B10
2,1600,B11
3,929,B12

# Molecular target: T1, Recombinant His-tagged human CD36.ECD …
# Assay: ELISA, coated human CD36.ECD (FIG. 2D)
# Method: as §1, §4
row,EC50 [pM],Binder
1,53.9,B3
2,1460,B13
3,75.1,B14
4,80.3,B8
5,49,B9

# Molecular target: T1, Recombinant His-tagged human CD36.ECD …
# Assay: ELISA, coated human CD36.ECD (FIG. 2C)
# Method: as §1, §4
row,EC50 [pM],Binder
1,247,B15
2,202,B16
3,103,B17
4,254,B18
5,145,B19
6,137,B8

# Molecular target: T1, Recombinant His-tagged human CD36.ECD …
# Assay: ELISA, coated human CD36.ECD (FIG. 2A)
# Method: as §1, §4
row,EC50 [pM],Binder
1,1530,B1
2,69.5,B20
3,1520,B21
4,52.9,B7
5,49.2,B5
6,422,B22

# Molecular target: T3, full-length human CD36-Flag …
# Assay: flow cytometry, F293 cells overexpressing human CD36
# Description: as §5
row,EC50,Binder
1,0.109 µg/mL and 0.0968 µg/mL,B3
2,0.111 µg/mL,B7
3,0.11 µg/mL and 0.091 µg/mL,B5
4,0.157 µg/mL,B8
5,0.089 µg/mL,B9

# Molecular target: T1, Recombinant His-tagged human CD36.ECD …
# Assay: hCD36 ELISA, plate coated with human CD36.ECD, antibody titrated, OD (450-650) nm
# Method: as §1, §4
row,binding result,Binder
1,no binding (tested: about 20 nM),B23
